# Test results reported in patent US20250270313A1 (SUNSHINE LAKE PHARMA, published 2025).
# T1: hClaudin 18.2 peptide 18.2EL1-A (human)
# T1 construct: also called peptide A; A peptide
# T1 peptide: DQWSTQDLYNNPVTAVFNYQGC
# T2: hClaudin 18.2 peptide 18.2EL1-E (human)
# T2 construct: also called peptide E; E peptide
# T2 peptide: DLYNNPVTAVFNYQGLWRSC
# How the values were obtained:
# [1] = target: T3, human Claudin 18.2 (hClaudin18.2) (human, UniProt P56856-2 1-261); test: flow cytometry on CHO cells overexpressing claudin18.2, scFv-Fc fusion protein
# T3 construct: whole, on cells; also called CLDN18.2; hClaudin18.2-CHO
# Method: CHO overexpressing claudin18.2 cells were prepared and centrifuged at 300 g for 5 minutes, then resuspended in PBS, and this step was repeated twice. Finally, the concentration was adjusted to 3E+06 cells/mL with PBS. […] CHO overexpressing claudin18.1 cells and CHO overexpressing claudin18.2 cells were laid out in two rows of transparent 96 round-bottomed wells, each with 100 μL, and then the antibodies were added to the cells in order and mixed evenly at 1:1. Each was set blank wells and negative wells. The mixture was put in a refrigerator at 4° C. and incubated for 1 hour. After the incubation, the mixture was centrifuged at 500 g for 3 min in a large-capacity benchtop high-speed centrifuge, then resuspended in PBS, and this step was repeated three times. The PE-labeled goat anti-human secondary antibody was diluted to a concentration of 1:500, and 100 μL was added to each well. The blank wells were left alone. The mixture was put in a refrigerator at 4° C. and incubated for 30 min. After the incubation, the mixture was centrifuged at 500 g for 3 min in a large-capacity tabletop high-speed centrifuge, then resuspended in PBS, and this step was repeated three times. Finally, 180 μL of PBS was added to each well and BDverse flow cytometer was used to test.
# [2] = target: T3, human Claudin 18.2 (hClaudin18.2); test: cell-based or functional assay
# [3] = target: T1, hClaudin 18.2 peptide 18.2EL1-A; test: peptide competition: antibody pre-incubated with peptide, then flow cytometry on CHO cells overexpressing claudin18.2
# [4] = target: T3, human Claudin 18.2 (hClaudin18.2); test: flow cytometry on CHO cells overexpressing claudin18.2, purified murine antibody
# Method: CHO overexpressing claudin18.1 cells and CHO overexpressing claudin18.2 cells were prepared, centrifuged at 300 g for 5 minutes, then resuspended in PBS, and this step was repeated twice. Finally, the concentration was adjusted to 3E+06 cells/mL with PBS. […] CHO overexpressing claudin18.1 cells and CHO overexpressing claudin18.2 cells were laid out in two rows of transparent 96 round-bottomed wells, each with 100 μL, and then the antibodies were added to the cells in order and mixed evenly at 1:1. Each was set blank wells and negative wells. The mixture was put in a refrigerator at 4° C. and incubated for 1 hour. After the incubation, the mixture was centrifuged at 500 g for 3 min in a large-capacity benchtop high-speed centrifuge, then resuspended in PBS, and this step was repeated three times. The PE-labeled goat anti-mouse secondary antibody was diluted to a concentration of 1:500, and 100 μL was added to each well. The blank wells were left alone. The mixture was put in a refrigerator at 4° C. and incubated for 30 min. After the incubation, the mixture was centrifuged at 500 g for 3 min in a large-capacity tabletop high-speed centrifuge, then resuspended in PBS, and this step was repeated three times. Finally, 180 μL of PBS was added to each well and BDverse flow cytometer was used to test.
# [5] = target: T2, hClaudin 18.2 peptide 18.2EL1-E; test: peptide competition: antibody pre-incubated with peptide, then flow cytometry on CHO cells overexpressing claudin18.2
"ADCC reporter (Jurkat-NFAT-Luc-CD16 luciferase), half-peak concentration EC50, target cell BXPC-3-Claudin 18.2 [2] [ng/mL]","ADCC reporter (Jurkat-NFAT-Luc-CD16 luciferase), half-peak concentration EC50, target cell Capan-1-Claudin 18.2 [2] [ng/mL]","ADCC reporter (Jurkat-NFAT-Luc-CD16 luciferase), half-peak concentration EC50, target cell SK-GT-Claudin 18.2 [2] [ng/mL]",Binder,"CDC activity (CCK8 cell viability, OD450), half inhibitory concentration IC50, target cell KATOIII-3-Claudin 18.2 [2] [ng/mL]",further results
–,–,–,"m1E7-FC anti-Claudin 18.2 scFv-Fc fusion protein (Fc fusion, also called m1E7 (Fc fusion protein form); 1E7 scFv-Fc; not shown: detected wi) scFv: DIVMTQSPSSLSVTAGEKVTMSCKSSQSLLNSGNQKNYLTWYQQKPGQPPKLLIYWASTRESGVPDRFTGSGSGTDFTLTISSVQAEDLAVYYCQNDYSYPFTFGSGTKLEIKGGGGSGGGGSGGGGSQVQLQQPGSELVKPGASVKLSCKASGYTFTSYWMHWVKQRPGQGLEWIGMIHPNSGSTNYNEKFKSKATLTVDKSSSTAYMQLSSLTSEDSAVYYCARRYYGSISPDYWGQGTTLTVSS",–,EC50 [1]: ~2600 ng/mL
2.11,2.68,4.47,"chimeric antibody 1B6 (antibody, human IgG1, kappa) heavy: not shown light: DIVMTQSPSSLTVTAGEKVTMSCKSSQSLFNSGNQKNYLTWYQQKPGQPPKLLIYWASTRESGVPDRFTGSGSGTDFTLTISSVQAEDLAVYFCQNDYSYPLTFGAGTKLELRRTVAAPSVFIFPPSDEQLKSGTASVVCLLNNFYPREAKVQWKVDNALQSGNSQESVTEQDSKDSTYSLSSTLTLSKADYEKHKVYACEVTHQGLSSPVTKSFNRGEC",2660,–
2.7,2.63,7.07,"chimeric antibody 1E7 (antibody, human IgG1, kappa) heavy: not shown light: DIVMTQSPSSLSVTAGEKVTMSCKSSQSLLNSGNQKNYLTWYQQKPGQPPKLLIYWASTRESGVPDRFTGSGSGTDFTLTISSVQAEDLAVYYCQNDYSYPFTFGSGTKLEIKRTVAAPSVFIFPPSDEQLKSGTASVVCLLNNFYPREAKVQWKVDNALQSGNSQESVTEQDSKDSTYSLSSTLTLSKADYEKHKVYACEVTHQGLSSPVTKSFNRGEC",1570,–
3.45,3.48,9.06,"IMAB362 control antibody (antibody, V domains shown) VH: QVQLQQPGAELVRPGASVKLSCKASGYTFTSYWINWVKQRPGQGLEWIGNIYPSDSYTNYNQKFKDKATLTVDKSSSTAYMQLSSPTSEDSAVYYCTRSWRGNSFDYWGQGTTLTVSS VL: DIVMTQSPSSLTVTAGEKVTMSCKSSQSLLNSGNQKNYLTWYQQKPGQPPKLLIYWASTRESGVPDRFTGSGSGTDFTLTISSVQAEDLAVYYCQNDYSYPFTFGSGTKLEIKR",4890,–
–,–,–,"m1B6-FC anti-Claudin 18.2 scFv-Fc fusion protein (Fc fusion, also called m1B6 (Fc fusion protein form); 1B6 scFv-Fc; not shown: detected wi) scFv: DIVMTQSPSSLTVTAGEKVTMSCKSSQSLFNSGNQKNYLTWYQQKPGQPPKLLIYWASTRESGVPDRFTGSGSGTDFTLTISSVQAEDLAVYFCQNDYSYPLTFGAGTKLELRGGGGSGGGGSGGGGSEVQLQQSGPELVRPGASVKMSCKASGYTFTDYNMHWVKQSHGKSLEWIGYINPNNGGTSYNQKFKGKATLTVNKSSSTAYMELRSLTSEDSAVYYCVTTRYLAVWGTGTTVTVSS",–,EC50 [1]: ~500 ng/mL
–,–,–,"m1E7 anti-Claudin 18.2 murine monoclonal antibody (antibody, mouse IgG2b, kappa, Murine antibody with full heavy and light chains; also called 1E7 (hybridoma); m1E7 mAb) heavy: QVQLQQPGSELVKPGASVKLSCKASGYTFTSYWMHWVKQRPGQGLEWIGMIHPNSGSTNYNEKFKSKATLTVDKSSSTAYMQLSSLTSEDSAVYYCARRYYGSISPDYWGQGTTLTVSSAKTTPPSVYPLAPGCGDTTGSSVTLGCLVKGYFPESVTVTWNSGSLSSSVHTFPALLQSGLYTMSSSVTVPSSTWPSQTVTCSVAHPASSTTVDKKLEPSGPISTINPCPPCKECHKCPAPNLEGGPSVFIFPPNIKDVLMISLTPKVTCVVVDVSEDDPDVQISWFVNNVEVHTAQTQTHREDYNSTIRVVSTLPIQHQDWMSGKEFKCKVNNKDLPSPIERTISKIKGLVRAPQVYILPPPAEQLSRKDVSLTCLVVGFNPGDISVEWTSNGHTEENYKDTAPVLDSDGSYFIYSKLNMKTSKWEKTDSFSCNVRHEGLKNYYLKKTISRSPGK light: DIVMTQSPSSLSVTAGEKVTMSCKSSQSLLNSGNQKNYLTWYQQKPGQPPKLLIYWASTRESGVPDRFTGSGSGTDFTLTISSVQAEDLAVYYCQNDYSYPFTFGSGTKLEIKRADAAPTVSIFPPSSEQLTSGGASVVCFLNNFYPKDINVKWKIDGSERQNGVLNSWTDQDSKDSTYSMSSTLTLTKDEYERHNSYTCEATHKTSTSPIVKSFNRNEC",–,binding result [3]: binds; EC50 [4]: ~100 ng/mL
–,–,–,"m1B6 anti-Claudin 18.2 murine monoclonal antibody (antibody, mouse IgG2b, kappa, Murine antibody with full heavy and light chains; also called 1B6 (hybridoma); m1B6 mAb) heavy: EVQLQQSGPELVRPGASVKMSCKASGYTFTDYNMHWVKQSHGKSLEWIGYINPNNGGTSYNQKFKGKATLTVNKSSSTAYMELRSLTSEDSAVYYCVTTRYLAVWGTGTTVTVSSAKTTPPSVYPLAPGCGDTTGSSVTLGCLVKGYFPESVTVTWNSGSLSSSVHTFPALLQSGLYTMSSSVTVPSSTWPSQTVTCSVAHPASSTTVDKKLEPSGPISTINPCPPCKECHKCPAPNLEGGPSVFIFPPNIKDVLMISLTPKVTCVVVDVSEDDPDVQISWFVNNVEVHTAQTQTHREDYNSTIRVVSTLPIQHQDWMSGKEFKCKVNNKDLPSPIERTISKIKGLVRAPQVYILPPPAEQLSRKDVSLTCLVVGFNPGDISVEWTSNGHTEENYKDTAPVLDSDGSYFIYSKLNMKTSKWEKTDSFSCNVRHEGLKNYYLKKTISRSPGK light: DIVMTQSPSSLTVTAGEKVTMSCKSSQSLFNSGNQKNYLTWYQQKPGQPPKLLIYWASTRESGVPDRFTGSGSGTDFTLTISSVQAEDLAVYFCQNDYSYPLTFGAGTKLELRRADAAPTVSIFPPSSEQLTSGGASVVCFLNNFYPKDINVKWKIDGSERQNGVLNSWTDQDSKDSTYSMSSTLTLTKDEYERHNSYTCEATHKTSTSPIVKSFNRNEC",–,binding result [3]: binds; binding result [5]: binds; EC50 [4]: ~60 ng/mL
